Measurements published in patent US20150267232A1, “IN VIVO AND IN VITRO CARBENE INSERTION AND NITRENE TRANSFER REACTIONS CATALYZED BY HEME ENZYMES” (California Institute of Technology, priority 2012, published 2015).
Several values for one entry are separate records, joined by “and”; a condition that tells them apart may be missing. Equal entries are not always repeated.

Experiment: Whole-cell C—H amination of azide 1
Assay type: cell-based, E. coli BL21(DE3)
Conditions: intact E. coli cells
Experimental: Reaction conditions were as follows: 2 mM azide 1, 25 mM glucose, E. coli BL21(DE3) cells in M9-N minimal medium (OD600=30), 2.5% DMSO, oxygen depletion system (100 U ml^−1 glucose oxidase, 1400 U ml^−1 catalase) reacted for 24 hours under anaerobic conditions at 298 K. Yields determined by HPLC quantification.
(§1) Whole cell reactions used E. coli BL21(DE3) cells containing P450 or P411 catalysts, which were expressed and prepared as described elsewhere (Coelho, P. S. et al., Highly efficient carbene transfer to olefins catalyzed in vivo. Submitted (2013)). Following expression, cells were resuspended to an OD600 of 30 in M9 salts lacking NH4Cl (M9-N), and then degassed by sparging with argon in a sealed 6 mL crimp vial for at least 0.5 h. Separately, glucose (250 mM dissolved in 1×M9-N, 40 μL, or multiples thereof) was degassed by sparging with argon for at least five minutes. The oxygen quenching mixture was added to sealed 2 mL crimp vials containing stir bars and the headspace of the vials was purged with argon for five minutes at which time glucose, and then cells were added by syringe. Substrate (80 mM arylsulfonyl azide, 10 uL in DMSO) was added via syringe, and the reactions were stirred at room temperature for 24 h under positive argon pressure.
as §1, with “E.” for “Whole cell reactions used E.”, “catalysts” for “catalysts, which”, “Coelho,” for “(Coelho,”, “μL” for “uL”, “pressure. Reactions were quenched in a manner identical to reactions containing purified enzymes as described above. For chiral HPLC, the reactions were extracted and purified in an identical manner as for reactions that employed purified enzymes. Lyophilized intact cells containing sucrose as a cryoprotectant were prepared as described elsewhere (Coelho, P. S. et al., Highly efficient carbene transfer to olefins catalyzed in vivo. Submitted (2013)). The resulting cell powder, containing expressed ABC-CIS (26 mg) were added along with a stir bar to a 2 mL crimp vial and then sealed. The headspace of the vial was degassed, oxygen quenching system (40 μL) was added via syringe, followed by degassed glucose (250 mM, 40 μL), M9-N (310 μL), and finally substrate (80 mM 1, 10 μL). Lyophilized cell reactions were stirred for 24 h at room temperature, then quenched and analyzed as described above. […]” for “pressure.”
The preparative reaction was scaled up proportionally from small-scale reactions. E. coli BL21 cells containing ABC-CIS (OD600 30, 90 mL in M9-N) were sparged with argon for 45 minutes in a round bottom flask (250 mL) containing a stir bar. Separately, glucose solution (250 mM, 11.6 mL) was sparged with argon in a conical flask. The oxygen quenching mixture (10×, 11.6 mL) was degassed in a conical flask that was placed under high vacuum until slight foaming occurred (1-2 s) and then back-filled with argon; this sequence was repeated several times. Sparged glucose solution was then added to the anaerobic cell suspension via syringe, followed by the oxygen quenching system. Finally, substrate 1 (80 mM, 2.9 mL DMSO) was added dropwise via syringe, and the reaction was stirred for 24 h at room temperature. To quench the reaction, dilute HCl (3 M, 8.7 mL) and acetonitrile (125 mL) were added. […]

[1] = OD600=30, 2 mM azide 1, 24 hours, anaerobic

B1: ABC-T268A: P450BM3 variant: T268A, C400S (protein, listed as Bacillus megaterium)
chain: TIKEMPQPKTFGELKNLPLLNTDKPVQALMKIADELGEIFKFEAPGRVTRYLSSQRLIKEACDESRFDKNLSQALKFVRDFAGDGLFTSWTHEKNWKKAHNILLPSFSQQAMKGYHAMMVDIAVQLVQKWERLNADEHIEVPEDMTRLTLDTIGLCGFNYRFNSFYRDQPHPFITSMVRALDEAMNKLQRANPDDPAYDENKRQFQEDIKVMNDLVDKIIADRKASGEQSDDLLTHMLNGKDPETGEPLDDENIRYQIITFLIAGHEATSGLLSFALYFLVKNPHVLQKAAEEAARVLVDPVPSYKQVKQLKYVGMVLNEALRLWPTAPAFSLYAKEDTVLGGEYPLEKGDELMVLIPQLHRDKTIWGDDVEEFRPERFENPSAIPQHAFKPFGNGQRASIGQQFALHEATLVLGMMLKHFDFEDHTNYELDIKETLTLKPEGFVVKAKSKKIPLGGIPSPSTEQSAKKVRKKAENAHNTPLLVLYGSNMGTAEGTARDLADIAMSKGFAPQVATLDSHAGNLPREGAVLIVTASYNGHPPDNAKQFVDWLDQASADEVKGVRYSVFGCGDKNWATTYQKVPAFIDETLAAKGAENIADRGEADASDDFEGTYEEWREHMWSDVAAYFNLDIENSEDNKSTLSLQFVDSAADMPLAKMHGAFSTNVVASKELQQPGSARSTRHLEIELPKEASYQEGDHLGVIPRNYEGIVNRVTARFGLDASQQIRLEAEEEKLAHLPLAKTVSVEELLQYVELQDPVTRTQLRAMAAKTVCPPHKVELEALLEKQAYKEQVLAKRLTMLELLEKYPACEMKFSEFIALLPSIRPRYYSISSSPRVDEKQASITVSVVSGEAWSGYGEYKGIASNYLAELQEGDTITCFISTPQSEFTLPKDPETPLIMVGPGTGVAPFRGFVQARKQLKEQGQSLGEAHLYFGCRSPHEDYLYQEELENAQSEGIITLHTAFSRMPNQPKTYVQHVMEQDGKKLIELLDQGAHFYICGDGSQMAPAVEATLMKSYADVHQVSEADARLWLQQLEEKGRYAKDVWAG
modifications: cytochrome P450NADPH-P-450 reductase precursor, cytochrome P450 (BM3), CYP102A1
notes: P450BM3 variant: T268A, C400S
Yield sulfonamide (%) [1]: 45% | Yield sultam (%) [1]: 30% | TTN (anaerobic, added glucose): 245 and 250 | % ee ((S − R)/(S + R)): 89%
